Measurements reported in publication PMC10959120.

Columns and labels:
RAB-GDI1 = RAB-GDI1 (UniProt P31150); assay: GFP-Trap co-IP, immunoblot; conditions: reference: wild type; sites T86
[1] = biological target: MADD (DENN/MADD, RAB3-GEP) (UniProt Q8WXG6); assay: GFP-Trap co-IP, HA immunoblot; conditions: reference: wild type; sites T86

RAB3A (from UniProt P20336) T86A
binding against the reference (RAB-GDI1): stronger | binding against the reference [1]: stronger
